{
  "source": "patent US20230039401A1",
  "about": "“COMPOSITIONS AND METHODS FOR TREATING NRP2-ASSOCIATED DISEASES” (aTyr Pharma, Inc., priority 2018, published 2023)",
  "key": {"[1]": {"test_system": "murine model of sclerodermatous chronic graft vs. host disease (scl cGvHD)", "assay": "Murine model of sclerodermatous chronic graft vs. host disease", "type": "in vivo, mouse", "settings": "Fc-HRS(2-60) 0.4 mg/kg weekly IV, nintedanib daily oral, termination 8 weeks", "procedure": "This study was designed to investigate the in vivo potential of test compounds in a murine model of sclerodermatous chronic graft vs. host disease (scl cGvHD). A H-2^d minor histocompatibility antigen-mismatched model was employed. The model was prepared by allogenic transplantation of bone marrow cells and splenocytes of male donor B10.D2 mice into 8 week old female Balb/c mice which had been subject to whole body irradiation with 700 cGy 6 hours prior to transplantation.\nTreatment Regimen. Fifty-six (56) Balb/c mice, (Janvier, Le Genest St. Isle, France, female, 8 weeks) were used as recipients in this study while B10.D2 mice (Jackson Laboratory, Bar Harbor, Me., USA, male) were euthanized to provide donor cells for allogenic transplantation. The animals were assigned to study groups of 8 mice, and housed in specific pathogen-free conditions with sterile food and water. In brief, animals received weekly intravenous injections of the Vehicle of Fc-HRS(2-60) (20 mM Histidine/125 mM NaCl/10 mM Methionine/3% Sucrose/0.02% PS20, pH 6.9) beginning on Day 7 post transplantation (groups 2 and 3) or Fc-HRS(2-60) (0.4 mg/kg) beginning on Day 7 (group 4) or Day 21 (group 6) post-transplantation. […] Tissues were examined histologically using common staining techniques and tissue homogenates were analyzed for hydroxyproline content as an index of collagen content. […]"}, "SLC13A3": {"biological_target": "T1, SLC13A3 (Homo sapiens, UniProt Q8WWT9)", "T1 construct": "host or cells: HEK293", "T1 sequence (Q8WWT9 1-602)": "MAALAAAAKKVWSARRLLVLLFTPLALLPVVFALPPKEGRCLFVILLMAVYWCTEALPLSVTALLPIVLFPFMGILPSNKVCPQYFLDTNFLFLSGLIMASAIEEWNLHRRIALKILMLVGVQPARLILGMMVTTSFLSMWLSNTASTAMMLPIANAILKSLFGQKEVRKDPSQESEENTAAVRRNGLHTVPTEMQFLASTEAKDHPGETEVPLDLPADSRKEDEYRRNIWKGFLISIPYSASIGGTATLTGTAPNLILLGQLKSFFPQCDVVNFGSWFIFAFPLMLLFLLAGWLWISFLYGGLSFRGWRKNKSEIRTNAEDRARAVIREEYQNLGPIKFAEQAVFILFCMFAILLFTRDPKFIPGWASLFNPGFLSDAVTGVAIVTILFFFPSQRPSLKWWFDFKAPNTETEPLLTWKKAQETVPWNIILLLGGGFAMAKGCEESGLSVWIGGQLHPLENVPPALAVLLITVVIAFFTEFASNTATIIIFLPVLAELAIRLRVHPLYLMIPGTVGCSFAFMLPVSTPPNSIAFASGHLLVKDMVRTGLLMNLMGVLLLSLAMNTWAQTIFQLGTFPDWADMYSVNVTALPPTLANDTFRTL", "assay": "Retrogenix cell microarray screen, SLC13A3", "type": "binding", "settings": "20 μg/ml test protein; for Sequential incubation confirmatory screening result, SLC13A3: sequential staining method, expressed in HEK293 cells", "procedure": "(§1) To identify potential interacting partners of HRS, and related HRS polypeptides, the Retrogenix cell microarray screening technology (Retrogenix Ltd., High Peak Rd, United Kingdom) was used to evaluate binding of a HRS-Fc fusion protein construct ([Fc-HRS(2-60)] to a library of approximately 4500 membrane bound human proteins individually expressed in HEK293 cells.\n(§2) In brief, HEK293 cells were plated onto glass cover slides which have been pre-treated by the application of discrete expression vectors to enable reverse transfection and expression of each of the 4500 membrane proteins, to create a cell microarray. Transfection efficiencies were assessed via ZsGreen1 expression and exceeded the minimum threshold for all of the library members screened.\n(§3) Use of a smaller HRS fragment with a Fc tag provided for high sensitivity detection via the use of an AlexaFluor647 labeled anti-human IgG Fc antibody (AF647) as the detection reagent, and readily available controls to confirm specificity. The detection antibody was used at screening concentrations of 2, 5, and 20 μg/ml, as more fully described below.\nTest Protein was screened at a concentration of 20 μg/ml using two different screening formats; either a sequential staining method, or a pre-incubation staining method. Sequential staining involved, in brief, the sequential addition to the test cells, of the test protein and detection reagents, while the pre-incubation staining method involved the pre-incubation of the test protein with the detection reagents (2:1 molar ratio of test protein to detection antibody) to pre-form higher avidity complexes prior to the addition to the test cells.\n(§4) Primary hits (duplicate spots) were identified by analyzing fluorescence intensity in the AlexaFluor 647 and ZsGreen1 emission channels using the ImageQuant system, following standard fluorescent methodology. […]"}, "IGHG3": {"biological_target": "T2, IGHG3 (Homo sapiens, UniProt P01860)", "T2 construct": "host or cells: HEK293", "T2 sequence (P01860 whole entry)": "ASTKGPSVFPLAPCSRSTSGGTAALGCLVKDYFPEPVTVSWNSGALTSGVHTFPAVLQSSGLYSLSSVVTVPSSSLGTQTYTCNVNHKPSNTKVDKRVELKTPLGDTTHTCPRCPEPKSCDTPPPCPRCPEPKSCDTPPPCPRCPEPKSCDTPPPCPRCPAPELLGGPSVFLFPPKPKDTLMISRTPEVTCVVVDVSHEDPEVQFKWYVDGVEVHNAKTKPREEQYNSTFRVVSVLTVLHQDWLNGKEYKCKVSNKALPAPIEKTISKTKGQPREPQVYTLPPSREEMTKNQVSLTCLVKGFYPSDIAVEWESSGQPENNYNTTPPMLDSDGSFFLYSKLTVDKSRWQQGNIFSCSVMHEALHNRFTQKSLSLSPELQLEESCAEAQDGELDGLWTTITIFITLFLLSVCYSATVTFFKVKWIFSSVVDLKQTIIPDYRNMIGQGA", "assay": "Retrogenix cell microarray screen, IGHG3", "type": "binding", "settings": "sequential staining method; 20 μg/ml test protein; expressed in HEK293 cells", "procedure": "as §1, §2\nas §3, with “below. […]” for “below.”\nas §4"}, "MS4A1": {"biological_target": "T3, MS4A1 (Homo sapiens, UniProt P11836)", "T3 construct": "host or cells: HEK293", "T3 sequence (P11836 1-297)": "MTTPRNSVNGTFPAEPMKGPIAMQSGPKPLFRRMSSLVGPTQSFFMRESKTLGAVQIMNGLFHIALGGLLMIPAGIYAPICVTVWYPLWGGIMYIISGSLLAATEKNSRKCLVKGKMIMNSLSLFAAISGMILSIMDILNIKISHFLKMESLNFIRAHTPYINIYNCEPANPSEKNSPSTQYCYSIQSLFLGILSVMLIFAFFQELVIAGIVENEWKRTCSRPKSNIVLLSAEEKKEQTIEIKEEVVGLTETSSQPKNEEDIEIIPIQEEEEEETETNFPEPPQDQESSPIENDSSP", "assay": "Retrogenix cell microarray screen, MS4A1", "type": "binding", "settings": "20 μg/ml test protein", "procedure": "as §1, §2\nas §3, with “below. […]” for “below.”\nas §4"}, "FCGR2A": {"biological_target": "T4, FCGR2A (Homo sapiens, UniProt P12318)", "T4 construct": "host or cells: HEK293", "T4 sequence (P12318 34-317)": "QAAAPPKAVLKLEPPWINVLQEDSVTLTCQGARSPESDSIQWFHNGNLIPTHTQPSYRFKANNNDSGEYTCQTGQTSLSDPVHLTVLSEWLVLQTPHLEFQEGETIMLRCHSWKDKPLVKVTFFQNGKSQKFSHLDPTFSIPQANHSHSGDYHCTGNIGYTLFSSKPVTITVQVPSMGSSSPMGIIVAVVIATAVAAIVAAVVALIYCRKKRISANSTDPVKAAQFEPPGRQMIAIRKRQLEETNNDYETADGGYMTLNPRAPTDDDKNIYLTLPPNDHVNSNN", "assay": "Retrogenix cell microarray screen, FCGR2A", "type": "binding", "settings": "sequential staining method; 20 μg/ml test protein; expressed in HEK293 cells", "procedure": "as §1, §2\nas §3, with “below. […]” for “below.”\nas §4"}, "FCGR1A": {"biological_target": "T5, FCGR1A (Homo sapiens, UniProt P12314)", "T5 construct": "host or cells: HEK293", "T5 sequence (P12314 16-374)": "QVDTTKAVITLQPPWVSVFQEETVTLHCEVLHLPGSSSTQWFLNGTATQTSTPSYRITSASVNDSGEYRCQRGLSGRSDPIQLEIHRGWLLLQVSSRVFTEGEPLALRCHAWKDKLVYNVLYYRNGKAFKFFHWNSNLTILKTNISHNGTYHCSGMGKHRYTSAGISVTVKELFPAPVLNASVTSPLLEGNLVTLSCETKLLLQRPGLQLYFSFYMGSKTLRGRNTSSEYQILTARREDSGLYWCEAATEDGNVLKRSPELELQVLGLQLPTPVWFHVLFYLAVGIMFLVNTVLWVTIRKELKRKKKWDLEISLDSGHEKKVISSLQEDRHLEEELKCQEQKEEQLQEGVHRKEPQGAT", "assay": "Retrogenix cell microarray screen, FCGR1A", "type": "binding", "settings": "sequential staining method; 20 μg/ml test protein; expressed in HEK293 cells", "procedure": "as §1, §2\nas §3, with “below. […]” for “below.”\nas §4"}, "NRP2": {"biological_target": "T6, NRP2 (Homo sapiens, UniProt O60462)", "T6 construct": "Fc (C); purchased R&D Systems 2215-N2", "T6 sequence (O60462 21-931)": "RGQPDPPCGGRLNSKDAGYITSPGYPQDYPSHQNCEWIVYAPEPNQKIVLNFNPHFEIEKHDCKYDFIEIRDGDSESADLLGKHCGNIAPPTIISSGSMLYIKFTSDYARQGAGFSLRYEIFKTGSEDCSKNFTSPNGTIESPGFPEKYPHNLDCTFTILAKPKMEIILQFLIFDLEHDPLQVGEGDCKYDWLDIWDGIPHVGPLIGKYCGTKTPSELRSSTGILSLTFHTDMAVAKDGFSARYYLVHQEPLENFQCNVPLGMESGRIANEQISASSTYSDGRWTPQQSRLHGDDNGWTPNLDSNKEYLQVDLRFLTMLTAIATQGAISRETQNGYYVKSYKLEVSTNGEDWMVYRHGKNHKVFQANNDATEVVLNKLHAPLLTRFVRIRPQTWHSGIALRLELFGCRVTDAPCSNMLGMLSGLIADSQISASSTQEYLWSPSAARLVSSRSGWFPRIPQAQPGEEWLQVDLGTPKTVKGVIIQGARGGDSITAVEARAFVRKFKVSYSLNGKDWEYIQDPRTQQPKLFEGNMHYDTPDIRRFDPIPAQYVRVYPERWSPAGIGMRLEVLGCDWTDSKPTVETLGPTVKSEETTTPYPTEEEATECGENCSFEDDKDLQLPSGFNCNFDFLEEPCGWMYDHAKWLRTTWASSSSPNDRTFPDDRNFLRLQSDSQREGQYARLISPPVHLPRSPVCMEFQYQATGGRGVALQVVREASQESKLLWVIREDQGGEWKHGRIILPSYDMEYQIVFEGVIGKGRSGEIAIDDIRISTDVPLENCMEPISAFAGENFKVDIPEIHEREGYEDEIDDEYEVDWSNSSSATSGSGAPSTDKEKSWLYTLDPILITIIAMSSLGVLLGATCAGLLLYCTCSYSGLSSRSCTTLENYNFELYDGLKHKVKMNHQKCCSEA", "assay": "SPR protein-protein interaction, human NRP2 over immobilized protein", "type": "binding", "settings": "NRP2 flowed as analyte (50 nM or 20 nM); running buffer with 5 mM CaCl2", "procedure": "Protein-Protein Interaction studies. […] SPR experiments were conducted on a Bio-Rad ProteOn XPR36 Protein Interaction Array instrument. Proteins were immobilized on different channels of ProteOn GLC sensor chips through amine coupling. Analyte proteins were flowed over the immobilized proteins. The sensor chip surface was regenerated between each analyte run to remove interacting proteins. Data was double referenced against an interspot (untreated chip surface) and a blank surface (activated and deactivated for amine coupling).\nStudies were performed to confirm the binding specificity of Neuropilin 2 (NRP2) to Fc-HRS(2-60) using orthologous methods to those used in the large scale Retrogenix screening (Example 1). In a series of experiments, Fc-HRS(2-60) and related proteins were immobilized on SPR chips, and NRP2 and related proteins were flowed as analytes. Upon confirmation of the NRP2:Fc-HRS(2-60) interaction, the dependence on divalent cations was tested as NRP2 is known to have Ca^2+ binding sites. The effects of previously characterized NRP2 ligands on the NRP2: Fc-HRS(2-60) interaction was also tested to determine if these known ligands have competitive effects on the Fc-HRS(2-60) interaction."}, "CD86": {"biological_target": "T7, CD86 (Homo sapiens, UniProt P42081)", "T7 construct": "host or cells: HEK293", "T7 sequence (P42081 24-329)": "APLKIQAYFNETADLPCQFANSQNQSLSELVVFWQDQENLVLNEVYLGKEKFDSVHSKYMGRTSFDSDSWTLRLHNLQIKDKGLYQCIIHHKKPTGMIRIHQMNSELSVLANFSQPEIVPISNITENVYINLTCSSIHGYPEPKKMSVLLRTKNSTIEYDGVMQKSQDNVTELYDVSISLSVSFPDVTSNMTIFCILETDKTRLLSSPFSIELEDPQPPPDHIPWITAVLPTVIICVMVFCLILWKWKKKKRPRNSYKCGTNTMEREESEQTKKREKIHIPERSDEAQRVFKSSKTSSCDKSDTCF", "assay": "Retrogenix cell microarray screen, CD86", "type": "binding", "settings": "20 μg/ml test protein", "procedure": "as §1, §2\nas §3, with “below. […]” for “below.”\nas §4"}, "[2]": {"settings": "pre-incubation staining method (2:1 test protein to detection antibody), HEK293 cells"}, "[3]": {"settings": "sequential staining method, expressed in HEK293 cells"}},
  "note": "Ends that are not written are not given here.",
  "data": [
    {"compound": "COC(=O)c1ccc2c(c1)NC(=O)/C2=C(\\Nc1ccc(N(C)C(=O)CN2CCN(C)CC2)cc1)c1ccccc1", "note": "[nintedanib]", "values": [
      {"measurement": "measures of fibrosis in skin and lung", "setting": "[1]; intervention beginning 7 days post-transplantation", "result": "significantly ameliorated all measures of fibrosis"},
      {"measurement": "fibrotic endpoints in skin and lung", "setting": "[1]; intervention beginning 21 days post-transplantation", "result": "significantly improved most endpoints measured"}
    ]},
    {"compound": "RITUXIMAB", "values": [
      {"measurement": "Pre-incubation confirmatory screening, Binding scoring, SLC13A3", "setting": "SLC13A3; [2]", "result": "INVERSE"},
      {"measurement": "Sequential incubation confirmatory screening result, SLC13A3", "setting": "SLC13A3", "result": "INVERSE"},
      {"measurement": "Sequential incubation confirmatory screening result, IGHG3", "setting": "IGHG3", "result": "STRONG"},
      {"measurement": "Pre-incubation confirmatory screening, Binding scoring, MS4A1", "setting": "MS4A1; [2]", "result": "STRONG"},
      {"measurement": "Sequential incubation confirmatory screening result, MS4A1", "setting": "MS4A1; [3]", "result": "STRONG"},
      {"measurement": "Sequential incubation confirmatory screening result, FCGR2A", "setting": "FCGR2A", "result": "NON SPEC"},
      {"measurement": "Sequential incubation confirmatory screening result, FCGR1A", "setting": "FCGR1A", "result": "NON SPEC"}
    ]},
    {"compound": "WARS WHEP: WHEP domain of WARS with a V5/His tag (SLLELFNSIATQGELVRSLKAGNASKDEIDSAVKMLVSLKMSYKAAAGEDYKADCPP; also: V5/His tag (not included))", "values": [
      {"measurement": "binding of human NRP2 to immobilized protein (SPR)", "setting": "NRP2", "result": "does not bind"}
    ]},
    {"compound": "GARS Fc-WHEP: Fc domain fused to the WHEP domain of GARS (VLAPLRLAVRQQGDLVRKLKEDKAPQVDVDKAVAELKARKRVLEAKELALQPKDDIV; not fully specified (N-terminus); also: fused to dimerising Fc domain (not included))", "values": [
      {"measurement": "binding of human NRP2 to immobilized protein (SPR)", "setting": "NRP2", "result": "does not bind"}
    ]},
    {"compound": "CTLA4-FC", "values": [
      {"measurement": "Sequential incubation confirmatory screening result, SLC13A3", "setting": "SLC13A3", "result": "NON SPEC"},
      {"measurement": "Sequential incubation confirmatory screening result, IGHG3", "setting": "IGHG3", "result": "STRONG"},
      {"measurement": "Sequential incubation confirmatory screening result, FCGR2A", "setting": "FCGR2A", "result": "NON SPEC"},
      {"measurement": "Pre-incubation confirmatory screening, Binding scoring, CD86", "setting": "CD86; [2]", "result": "STRONG"},
      {"measurement": "Sequential incubation confirmatory screening result, CD86", "setting": "CD86; [3]", "result": "STRONG"},
      {"measurement": "Sequential incubation confirmatory screening result, FCGR1A", "setting": "FCGR1A", "result": "NON SPEC"}
    ]},
    {"compound": "MARS Fc-WHEP: Fc domain fused to the WHEP domain of MARS (QIQALMDEVTKQGNIVRELKAQKADKNEVAAEVAKLLDLKKQLAVAEGKPPEAPKGK; not fully specified (N-terminus); also: fused to dimerising Fc domain (not included))", "values": [
      {"measurement": "binding of human NRP2 to immobilized protein (SPR)", "setting": "NRP2", "result": "does not bind"}
    ]}
  ]
}
